According to US20220153832A1 (PIONYR IMMUNOTHERAPEUTICS, published 2022):
Several values for one entry are separate records, joined by “and”; a condition that tells them apart may be missing. Equal values may be shown once. Blank lines part the entries; values can stand above or below the binder they belong to.

Tests used:
[1] = biological target: T1, N-terminally polyhistidine tagged human MARCO ECD (147-520), recombinant (human, UniProt Q9UEW3 147-520); assay: ELISA on hMARCO ECD with 2 mM Ca2+, A450-A620
T1 construct: also called PI-RG-3000; recombinant human MARCO; not shown: N-terminal polyhistidine tag
T1 sequence: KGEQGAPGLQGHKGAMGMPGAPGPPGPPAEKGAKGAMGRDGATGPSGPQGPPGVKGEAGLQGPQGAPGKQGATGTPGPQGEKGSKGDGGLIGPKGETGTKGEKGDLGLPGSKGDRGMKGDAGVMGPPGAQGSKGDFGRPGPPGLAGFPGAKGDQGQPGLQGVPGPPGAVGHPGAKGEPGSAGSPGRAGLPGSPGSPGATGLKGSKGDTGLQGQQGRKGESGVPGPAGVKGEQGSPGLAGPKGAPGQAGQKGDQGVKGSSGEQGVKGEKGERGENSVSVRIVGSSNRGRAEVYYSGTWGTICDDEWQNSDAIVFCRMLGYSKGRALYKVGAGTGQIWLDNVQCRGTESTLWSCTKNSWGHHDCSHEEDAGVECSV

[2] = biological target: T1, N-terminally polyhistidine tagged human …; assay: Biacore; isomerization/fragmentation stress sample
[3] = biological target: T1, N-terminally polyhistidine tagged human …; assay: ELISA readout A450-A620; the panel names no target, the legend says MARCO expressing cells; stable transfection pools
[4] = biological target: T1, N-terminally polyhistidine tagged human …; assay: Biacore; sample stressed 40 C 2 week
Procedure: Binding of the stressed samples to recombinant human MARCO was assessed by Biacore.

[5] = biological target: T1, N-terminally polyhistidine tagged human …; assay: KD (nM) Human; method not given
[6] = biological target: T1, N-terminally polyhistidine tagged human …; assay: ProbeLife Gator
Procedure: The kinetics assay used either anti-mouse Fc or anti-human Fc probes to capture the anti-MARCO antibodies onto the probe, and then a five-step kinetic protocol was used to measure the affinity of the antibodies to the antigen, including the following steps: baseline, loading, baseline, association, and dissociation. The kinetics buffer (K buffer) provided by ProbeLife was used to establish the baseline for 60 seconds, and then the anti-mFc or anti-hFc probes were loaded with 200 nM of the antibodies for 120s until the capture reached saturation, measurement of the baseline in K buffer was performed for another 60s, followed by the association step using 200 nM antigen (human MARCO, mouse MARCO or cyno MARCO), and the dissociation step performed in K buffer for 5-10 minutes. The assay was done at 37° C. to maximize antibody:antigen dissociation.

[7] = biological target: T2, recombinant cynomolgus MARCO protein (cynomolgus, UniProt A0A2K5X0Z2 65-519); assay: KD (nM) Cyno; method not given
T2 construct: Construct not described; also called cyno MARCO; cynoMARCO
T2 sequence: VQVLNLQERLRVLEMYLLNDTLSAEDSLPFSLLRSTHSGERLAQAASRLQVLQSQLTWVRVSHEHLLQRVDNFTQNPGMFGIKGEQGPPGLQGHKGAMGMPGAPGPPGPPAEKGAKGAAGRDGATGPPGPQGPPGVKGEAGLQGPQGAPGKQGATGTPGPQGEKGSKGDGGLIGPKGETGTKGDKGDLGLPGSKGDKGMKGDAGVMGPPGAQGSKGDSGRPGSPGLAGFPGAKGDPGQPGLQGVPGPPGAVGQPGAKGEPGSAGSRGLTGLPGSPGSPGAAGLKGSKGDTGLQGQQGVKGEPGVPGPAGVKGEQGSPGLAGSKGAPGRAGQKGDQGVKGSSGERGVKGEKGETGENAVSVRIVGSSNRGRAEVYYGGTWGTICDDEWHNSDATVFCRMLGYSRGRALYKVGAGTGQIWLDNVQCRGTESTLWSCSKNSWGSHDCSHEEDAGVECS

[8] = biological target: T3, N-terminal his-tagged mouse MARCO protein, recombinant (mouse, UniProt Q60754 150-518); assay: Biacore
T3 construct: The entry holds the His tag, the CLD and the SRCR domain; also called mMARCO (RG3016); PI-RG-3016
T3 sequence: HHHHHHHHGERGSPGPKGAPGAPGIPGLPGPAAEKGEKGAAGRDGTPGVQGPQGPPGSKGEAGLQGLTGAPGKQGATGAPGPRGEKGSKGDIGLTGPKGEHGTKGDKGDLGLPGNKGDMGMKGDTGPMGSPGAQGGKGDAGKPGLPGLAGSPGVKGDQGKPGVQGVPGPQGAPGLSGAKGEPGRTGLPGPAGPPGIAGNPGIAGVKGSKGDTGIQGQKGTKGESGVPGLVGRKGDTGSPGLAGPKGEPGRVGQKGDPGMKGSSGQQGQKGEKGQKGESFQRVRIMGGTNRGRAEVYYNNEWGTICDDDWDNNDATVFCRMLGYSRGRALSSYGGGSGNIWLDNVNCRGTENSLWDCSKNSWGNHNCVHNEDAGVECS

[9] = biological target: T4, Mouse MARCO, full length, on cells (mouse, UniProt Q60754 1-518); assay: flow cytometry, 293T (muMARCO)
T4 construct: whole, on cells; the cell type is named under assay; also called muMARCO; MuMARCO
T4 sequence (looked up): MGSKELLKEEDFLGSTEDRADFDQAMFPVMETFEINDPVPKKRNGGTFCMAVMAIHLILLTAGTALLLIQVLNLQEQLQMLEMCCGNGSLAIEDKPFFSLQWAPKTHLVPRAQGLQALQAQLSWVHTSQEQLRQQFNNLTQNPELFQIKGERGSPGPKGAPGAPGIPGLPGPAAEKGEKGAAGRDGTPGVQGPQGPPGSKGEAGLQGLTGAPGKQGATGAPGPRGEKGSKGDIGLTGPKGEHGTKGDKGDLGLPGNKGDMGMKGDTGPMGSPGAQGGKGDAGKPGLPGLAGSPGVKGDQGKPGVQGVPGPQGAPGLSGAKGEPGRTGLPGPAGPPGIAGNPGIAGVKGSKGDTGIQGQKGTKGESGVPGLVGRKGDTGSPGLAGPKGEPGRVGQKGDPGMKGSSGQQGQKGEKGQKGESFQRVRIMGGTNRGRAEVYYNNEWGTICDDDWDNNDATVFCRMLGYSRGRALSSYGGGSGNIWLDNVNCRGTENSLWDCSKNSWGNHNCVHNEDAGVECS

EC50 (read off the curve) [1]: ~1 nM
Kd [2]: 1.24 nM
EC50 (read off the curve) [3]: ~0.2 nM
Kd [4]: 1.2 nM
B1: PI-3015-AB (antibody, human IgG1, kappa)
heavy: not shown
light: DIQMTQSPSSLSASVGDRVTITCRASEGISNDLAWYQQKPGKAPKLLIYAASRLQSGVPSRFSGSGSGTDYTLTISSMQPEDFATYYCQQSYKYPLTFGQGTKLEIKRTVAAPSVFIFPPSDEQLKSGTASVVCLLNNFYPREAKVQWKVDNALQSGNSQESVTEQDSKDSTYSLSSTLTLSKADYEKHKVYACEVTHQGLSSPVTKSFNRGEC

Kd [5]: 0.43 nM and 0.64 nM
koff [6]: 0.00234 s⁻¹
Kd [7]: 0.26 nM
B2: PI-3010-AB (antibody, human IgG1, kappa)
heavy: not shown
light: DIQMTQSPASLSTSLGETVSIECLASEGISNDLAWYQQKSGKSPQLLIYAASRLQDGVPSRFSGSGSGTRYSLKISGMQPEDEADYFCQQSYKYPLTFGSGTKLEIKRTVAAPSVFIFPPSDEQLKSGTASVVCLLNNFYPREAKVQWKVDNALQSGNSQESVTEQDSKDSTYSLSSTLTLSKADYEKHKVYACEVTHQGLSSPVTKSFNRGEC

Kd [8]: < 0.02 nM
EC50 [9]: 2.53 nM
B3: PI-HX-3061 (antibody, rat IgG2a)
heavy: EVQLVESGGGLVQPGSSLKLSCVASKFTFSNYGMNWIRQAPKKGLEWIALIYYNSNNKYYADSVKGRFTISRDNSKNTLYLEMNSLRSEDTAMYYCAKSLTGGSDYFDSWGQGVMVTVSSAETTAPSVYPLAPGTALKSNSMVTLGCLVKGYFPEPVTVTWNSGALSSGVHTFPAVLQSGLYTLTSSVTVPSSTWPSQTVTCNVAHPASSTKVDKKIVPRNCGGDCKPCICTGSEVSSVFIFPPKPKDVLTITLTPKVTCVVVDISQDDPEVHFSWFVDDVEVHTAQTRPPEEQFNSTFRSVSELPILHQDWLNGRTFRCKVTSAAFPSPIEKTISKPEGRTQVPHVYTMSPTKEEMTQNEVSITCMVKGFYPPDIYVEWQMNGQPQENYKNTPPTMDTDGSYFLYSKLNVKKEKWQQGNTFTCSVLHEGLHNHHTEKSLSHSP
light: DVQMTQSPSYLAASPGESVSISCKASKSIGTFLAWYQEKPEKTNKLLIYSGSTLQSGTPSRFSGSGSGTDFTLTIRNLEPEDFAVYYCQQHDEYPFTFGSGTKLEIKRADAAPTVSIFPPSTEQLATGGASVVCLMNNFYPRDISVKWKIDGTERRDGVLDSVTDQDSKDSTYSMSSTLSLTKADYESHNLYTCEVVHKTSSSPVVKSFNRNEC
notes: Parental rat hybridoma, rat IgG2a; cross reactive with human and mouse MARCO
